Patent publication US20210244792A1

Target: complement C5
Assay: direct binding to C5 (FIG. 4C); method not described

**Q.** “EV576 protein (native, purified from salivary gland extracts of the soft tick Ornithodoros moubata) (from UniProt Q5YD59 19-168)” was tested. Which IC50 did it give?
**A.** Its IC50 is 20 µg/mL.
